Data set [1] has as its target T1, MtACK (Methanosarcina thermophila acetate kinase) (Methanosarcina thermophila, UniProt P38502, N211T).
T1 construct: gene ackA; full-length, N-terminal His6 tag (pET15b, pETack), expressed in E. coli BL21(DE3), HisTrap purified; tag removal not mentioned
Description: hydroxamate assay, A540. It is filed as biochemical. The settings on record: saturating acetate when possible (max 1 M), MgCl2, 50 mM Tris pH 7.5, 300 mM hydroxylamine, 37 °C.

Data set [2] deals with T2, MtACK (Methanosarcina thermophila acetate kinase) (Methanosarcina thermophila, UniProt P38502, G239A).
T2 construct: gene ackA; full-length, N-terminal His6 tag (pET15b, pETack), expressed in E. coli BL21(DE3), HisTrap purified; tag removal not mentioned
The experiment in a line: hydroxamate assay, A540. It counts as biochemical. The settings on record: saturating acetate when possible (max 1 M), MgCl2, 50 mM Tris pH 7.5, 300 mM hydroxylamine, 37 °C.

In data set [3] the target is T3, MtACK (Methanosarcina thermophila acetate kinase) (Methanosarcina thermophila, UniProt P38502, G331Q).
T3 construct: gene ackA; full-length, N-terminal His6 tag (pET15b, pETack), expressed in E. coli BL21(DE3), HisTrap purified; tag removal not mentioned
Description: hydroxamate assay, A540. It is filed as biochemical. The settings on record: acetate not saturating (max 1 M), MgCl2, 50 mM Tris pH 7.5, 300 mM hydroxylamine, 37 °C.

Data set [4] has as its target T4, MtACK (Methanosarcina thermophila acetate kinase) (Methanosarcina thermophila, UniProt P38502, N211A).
T4 construct: gene ackA; full-length, N-terminal His6 tag (pET15b, pETack), expressed in E. coli BL21(DE3), HisTrap purified; tag removal not mentioned
Description: hydroxamate assay, A540. The settings on record: saturating acetate when possible (max 1 M), MgCl2, 50 mM Tris pH 7.5, 300 mM hydroxylamine, 37 °C. It is filed as biochemical.

The target in data set [5] is T5, MtACK (Methanosarcina thermophila acetate kinase) (Methanosarcina thermophila, UniProt P38502, G239S).
T5 construct: gene ackA; full-length, N-terminal His6 tag (pET15b, pETack), expressed in E. coli BL21(DE3), HisTrap purified; tag removal not mentioned
Description: hydroxamate assay, A540. It counts as biochemical. The settings on record: saturating acetate when possible (max 1 M), MgCl2, 50 mM Tris pH 7.5, 300 mM hydroxylamine, 37 °C.

Data set [6] concerns the target T6, MtACK (Methanosarcina thermophila acetate kinase) (Methanosarcina thermophila, UniProt P38502, G331A).
T6 construct: gene ackA; full-length, N-terminal His6 tag (pET15b, pETack), expressed in E. coli BL21(DE3), HisTrap purified; tag removal not mentioned
The experiment in a line: hydroxamate assay, A540. It is filed as biochemical. The settings on record: saturating acetate when possible (max 1 M), MgCl2, 50 mM Tris pH 7.5, 300 mM hydroxylamine, 37 °C.

The target of data set [7] is T7, MtACK (Methanosarcina thermophila acetate kinase) (Methanosarcina thermophila, UniProt P38502).
T7 construct: gene ackA; full-length, N-terminal His6 tag (pET15b, pETack), expressed in E. coli BL21(DE3), HisTrap purified; tag removal not mentioned
The experiment in a line: hydroxamate assay, A540. It is filed as biochemical. The conditions noted are these: saturating acetate when possible (max 1 M), MgCl2, 50 mM Tris pH 7.5, 300 mM hydroxylamine, 37 °C.

The target in data set [8] is T8, MtACK (Methanosarcina thermophila acetate kinase) (Methanosarcina thermophila, UniProt P38502, N211S).
T8 construct: gene ackA; full-length, N-terminal His6 tag (pET15b, pETack), expressed in E. coli BL21(DE3), HisTrap purified; tag removal not mentioned
The experiment in a line: hydroxamate assay, A540. It is filed as biochemical. The conditions noted are these: saturating acetate when possible (max 1 M), MgCl2, 50 mM Tris pH 7.5, 300 mM hydroxylamine, 37 °C.

Substrate in data set [9]: Nc1nc2c(ncn2[C@@H]2O[C@H](COP(=O)(O)OP(=O)(O)OP(=O)(O)O)[C@@H](O)[C@H]2O)c(=O)[nH]1
Description: hydroxamate assay, A540. It counts as biochemical, Methanosarcina thermophila. The conditions noted are these: saturating acetate when possible (max 1 M), MgCl2, 50 mM Tris pH 7.5, 300 mM hydroxylamine, 37 °C.

Substrate in data set [10]: Nc1ccn([C@@H]2O[C@H](COP(=O)(O)OP(=O)(O)OP(=O)(O)O)[C@@H](O)[C@H]2O)c(=O)n1
The experiment in a line: hydroxamate assay, A540. It counts as biochemical, Methanosarcina thermophila. The settings on record: saturating acetate when possible (max 1 M), MgCl2, 50 mM Tris pH 7.5, 300 mM hydroxylamine, 37 °C.

Substrate in the data set “purified protein”: CC(=O)O
The experiment in a line: purified protein. The settings on record: ATP constant at optimal concentration, MgCl2, 50 mM Tris pH 7.5, 300 mM hydroxylamine, 37 °C.

Substrate in data set [11]: O=c1ccn([C@@H]2O[C@H](COP(=O)(O)OP(=O)(O)OP(=O)(O)O)[C@@H](O)[C@H]2O)c(=O)[nH]1
Description: hydroxamate assay, A540. It is filed as biochemical, Methanosarcina thermophila. The settings on record: saturating acetate when possible (max 1 M), MgCl2, 50 mM Tris pH 7.5, 300 mM hydroxylamine, 37 °C.

Substrate in data set [12]: O=P(O)(O)OP(=O)(O)OP(=O)(O)OC[C@H]1O[C@@H](n2cnc3c(O)ncnc32)[C@H](O)[C@@H]1O
The experiment in a line: hydroxamate assay, A540. It is filed as biochemical, Methanosarcina thermophila. The conditions noted are these: saturating acetate when possible (max 1 M), MgCl2, 50 mM Tris pH 7.5, 300 mM hydroxylamine, 37 °C.

Substrate in data set [13]: Cc1cn([C@H]2C[C@H](O)[C@@H](COP(=O)(O)OP(=O)(O)OP(=O)(O)O)O2)c(=O)[nH]c1=O
Description: hydroxamate assay, A540. The settings on record: saturating acetate when possible (max 1 M), MgCl2, 50 mM Tris pH 7.5, 300 mM hydroxylamine, 37 °C. It is filed as biochemical, Methanosarcina thermophila.

The text below walks through data of article PMC4390882 (Life, 2015).

T4 sequence (P38502 whole entry N211A): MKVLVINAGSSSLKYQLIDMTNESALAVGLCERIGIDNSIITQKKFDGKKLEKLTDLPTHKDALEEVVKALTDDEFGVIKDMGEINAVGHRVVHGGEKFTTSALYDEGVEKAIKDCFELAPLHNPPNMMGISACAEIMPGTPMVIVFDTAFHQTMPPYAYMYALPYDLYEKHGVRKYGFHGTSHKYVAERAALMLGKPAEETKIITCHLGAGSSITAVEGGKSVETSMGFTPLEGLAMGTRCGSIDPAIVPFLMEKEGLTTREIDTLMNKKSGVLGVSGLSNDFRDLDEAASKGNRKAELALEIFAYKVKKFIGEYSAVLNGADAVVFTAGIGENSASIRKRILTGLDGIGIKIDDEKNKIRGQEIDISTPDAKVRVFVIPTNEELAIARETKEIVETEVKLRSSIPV
T8 sequence (P38502 whole entry N211S): as the sequence (P38502 whole entry N211A) above, with A211S counted along it
T5 sequence (P38502 whole entry G239S): as the sequence (P38502 whole entry N211A) above, with A211N, G239S counted along it
T3 sequence (P38502 whole entry G331Q): as the sequence (P38502 whole entry N211A) above, with A211N, G331Q counted along it
T1 sequence (P38502 whole entry N211T): as the sequence (P38502 whole entry N211A) above, with A211T counted along it
T2 sequence (P38502 whole entry G239A): as the sequence (P38502 whole entry N211A) above, with A211N, G239A counted along it

In general, Km refers to the substrate concentration at which the rate is half of its maximum. With `Nc1ncnc2c1ncn2[C@@H]1O[C@H](COP(=O)(O)OP(=O)(O)OP(=O)(O)O)[C@@H](O)[C@H]1O` [ATP], the Michaelis-Menten constant (Km) in data set [1] stood at 7.1 ± 0.3 mM; in data set [2], 1.7 ± 0.1 mM; in [3], 18.4 ± 0.6 mM; in data set [4], 5.9 ± 0.5 mM; in [5], 1.8 ± 0.1 mM; in [6], 10.2 ± 0.4 mM. Moreover, the results for the Michaelis constant (Km) in data set [7] and in [8] were 4 ± 0.3 mM and 6.8 ± 0.6 mM, respectively.

B1: MtACK (Methanosarcina thermophila acetate kinase) (Methanosarcina thermophila; G331A) (protein)
chain: MKVLVINAGSSSLKYQLIDMTNESALAVGLCERIGIDNSIITQKKFDGKKLEKLTDLPTHKDALEEVVKALTDDEFGVIKDMGEINAVGHRVVHGGEKFTTSALYDEGVEKAIKDCFELAPLHNPPNMMGISACAEIMPGTPMVIVFDTAFHQTMPPYAYMYALPYDLYEKHGVRKYGFHGTSHKYVAERAALMLGKPAEETKIITCHLGNGSSITAVEGGKSVETSMGFTPLEGLAMGTRCGSIDPAIVPFLMEKEGLTTREIDTLMNKKSGVLGVSGLSNDFRDLDEAASKGNRKAELALEIFAYKVKKFIGEYSAVLNGADAVVFTAAIGENSASIRKRILTGLDGIGIKIDDEKNKIRGQEIDISTPDAKVRVFVIPTNEELAIARETKEIVETEVKLRSSIPV
notes: full-length, N-terminal His6 tag (pET15b, pETack), expressed in E. coli BL21(DE3), HisTrap purified; tag removal not mentioned
As usually defined, the kcat is the maximal rate divided by the concentration of active sites. By kcat/Km is commonly meant the turnover number divided by the Michaelis constant. For the molecule B1, in the data set “hydroxamate assay, A540 [9]”, the Km came to 5.3 ± 0.2 mM, the catalytic constant (kcat) is 67 ± 1.0 s⁻¹ and the kcat/Km stood at 12600 ± 400 M⁻¹ s⁻¹. Further, in the data set “hydroxamate assay, A540 [10]”, the Km worked out at 15.7 ± 1.6 mM, the catalytic constant (kcat) was 17 ± 0.8 s⁻¹ and the kcat/Km stood at 1100 ± 70 M⁻¹ s⁻¹.

B2: MtACK (Methanosarcina thermophila acetate kinase) (Methanosarcina thermophila) (protein)
chain: MKVLVINAGSSSLKYQLIDMTNESALAVGLCERIGIDNSIITQKKFDGKKLEKLTDLPTHKDALEEVVKALTDDEFGVIKDMGEINAVGHRVVHGGEKFTTSALYDEGVEKAIKDCFELAPLHNPPNMMGISACAEIMPGTPMVIVFDTAFHQTMPPYAYMYALPYDLYEKHGVRKYGFHGTSHKYVAERAALMLGKPAEETKIITCHLGNGSSITAVEGGKSVETSMGFTPLEGLAMGTRCGSIDPAIVPFLMEKEGLTTREIDTLMNKKSGVLGVSGLSNDFRDLDEAASKGNRKAELALEIFAYKVKKFIGEYSAVLNGADAVVFTAGIGENSASIRKRILTGLDGIGIKIDDEKNKIRGQEIDISTPDAKVRVFVIPTNEELAIARETKEIVETEVKLRSSIPV
notes: as for B1
B2: the Michaelis-Menten constant (Km) turned out to be 14.3 ± 0.5 mM in “purified protein”; 7.2 ± 0.9 mM in the data set “hydroxamate assay, A540 [9]”; 3.2 ± 0.4 mM in “hydroxamate assay, A540 [10]”; 2.7 ± 0.3 mM in “hydroxamate assay, A540 [11]”; 4.7 ± 0.2 mM in “hydroxamate assay, A540 [12]”; 2.7 ± 0.1 mM in the data set “hydroxamate assay, A540 [13]”. Moreover, the kcat in “hydroxamate assay, A540 [9]” came out at 571 ± 22 s⁻¹; in “hydroxamate assay, A540 [10]” it was 460 ± 28 s⁻¹; in the data set “hydroxamate assay, A540 [11]”, 415 ± 19 s⁻¹; in “hydroxamate assay, A540 [12]” it was 742 ± 10 s⁻¹; in “hydroxamate assay, A540 [13]”, 540 ± 9 s⁻¹. Besides, the kcat/Km in “hydroxamate assay, A540 [9]” is 80000 ± 7000 M⁻¹ s⁻¹; in “hydroxamate assay, A540 [10]” it was 148000 ± 13000 M⁻¹ s⁻¹; in the data set “hydroxamate assay, A540 [11]”, 152000 ± 7000 M⁻¹ s⁻¹; in “hydroxamate assay, A540 [12]” it was 158000 ± 5000 M⁻¹ s⁻¹; in “hydroxamate assay, A540 [13]”, 202000 ± 2000 M⁻¹ s⁻¹.
